Laboratory results published in IntAct's records for PubMed 12117771.

B1: Cadherin-related family member 2 (Homo sapiens), Q9BYE9 (parent)
chain: MAQLWLSCFLLPALVVSVAANVAPKFLANMTSVILPEDLPVGAQAFWLVAEDQDNDPLTYGMSGPNAYFFAVTPKTGEVKLASALDYETLYTFKVTISVSDPYIQVQREMLVIVEDRNDNAPVFQNTAFSTSINETLPVGSVVFSVLAVDKDMGSAGMVVYSIEKVIPSTGDSEHLFRILANGSIVLNGSLSYNNKSAFYQLELKACDLGGMYHNTFTIQCSLPVFLSISVVDQPDLDPQFVREFYSASVAEDAAKGTSVLTVEAVDGDKGINDPVIYSISYSTRPGWFDIGADGVIRVNGSLDREQLLEADEEVQLQVTATETHLNIYGQEAKVSIWVTVRVMDVNDHKPEFYNCSLPACTFTPEEAQVNFTGYVDEHASPRIPIDDLTMVVYDPDKGSNGTFLLSLGGPDAEAFSVSPERAVGSASVQVLVRVSALVDYERQTAMAVQVVATDSVSQNFSVAMVTIHLRDINDHRPTFPQSLYVLTVPEHSATGSVVTDSIHATDPDTGAWGQITYSLLPGNGADLFQVDPVSGTVTVRNGELLDRESQAVYYLTLQATDGGNLSSSTTLQIHLLDINDNAPVVSGSYNIFVQEEEGNVSVTIQAHDNDEPGTNNSRLLFNLLPGPYSHNFSLDPDTGLLRNLGPLDREAIDPALEGRIVLTVLVSDCGEPVLGTKVNVTITVEDINDNLPIFNQSSYNFTVKEEDPGVLVGVVKAWDADQTEANNRISFSLSGSGANYFMIRGLVLGAGWAEGYLRLPPDVSLDYETQPVFNLTVSAENPDPQGGETIVDVCVNVKDVNDNPPTLDVASLRGIRVAENGSQHGQVAVVVASDVDTSAQLEIQLVNILCTKAGVDVGSLCWGWFSVAANGSVYINQSKAIDYEACDLVTLVVRACDLATDPGFQAYSNNGSLLITIEDVNDNAPYFLPENKTFVIIPELVLPNREVASVRARDDDSGNNGVILFSILRVDFISKDGATIPFQGVFSIFTSSEADVFAGSIQPVTSLDSTLQGTYQVTVQARDRPSLGPFLEATTTLNLFTVDQSYRSRLQFSTPKEEVGANRQAINAALTQATRTTVYIVDIQDIDSAARARPHSYLDAYFVFPNGSALTLDELSVMIRNDQDSLTQLLQLGLVVLGSQESQESDLSKQLISVIIGLGVALLLVLVIMTMAFVCVRKSYNRKLQAMKAAKEARKTAAGVMPSAPAIPGTNMYNTERANPMLNLPNKDLGLEYLSPSNDLDSVSVNSLDDNSVDVDKNSQEIKEHRPPHTPPEPDPEPLSVVLLGRQAGASGQLEGPSYTNAGLDTTDL

Variants of: B1
Conditions: with mast2_human MAST2, Q6P0Q8
Sequence of mast2_human MAST2, Q6P0Q8 (Q6P0Q8 whole entry): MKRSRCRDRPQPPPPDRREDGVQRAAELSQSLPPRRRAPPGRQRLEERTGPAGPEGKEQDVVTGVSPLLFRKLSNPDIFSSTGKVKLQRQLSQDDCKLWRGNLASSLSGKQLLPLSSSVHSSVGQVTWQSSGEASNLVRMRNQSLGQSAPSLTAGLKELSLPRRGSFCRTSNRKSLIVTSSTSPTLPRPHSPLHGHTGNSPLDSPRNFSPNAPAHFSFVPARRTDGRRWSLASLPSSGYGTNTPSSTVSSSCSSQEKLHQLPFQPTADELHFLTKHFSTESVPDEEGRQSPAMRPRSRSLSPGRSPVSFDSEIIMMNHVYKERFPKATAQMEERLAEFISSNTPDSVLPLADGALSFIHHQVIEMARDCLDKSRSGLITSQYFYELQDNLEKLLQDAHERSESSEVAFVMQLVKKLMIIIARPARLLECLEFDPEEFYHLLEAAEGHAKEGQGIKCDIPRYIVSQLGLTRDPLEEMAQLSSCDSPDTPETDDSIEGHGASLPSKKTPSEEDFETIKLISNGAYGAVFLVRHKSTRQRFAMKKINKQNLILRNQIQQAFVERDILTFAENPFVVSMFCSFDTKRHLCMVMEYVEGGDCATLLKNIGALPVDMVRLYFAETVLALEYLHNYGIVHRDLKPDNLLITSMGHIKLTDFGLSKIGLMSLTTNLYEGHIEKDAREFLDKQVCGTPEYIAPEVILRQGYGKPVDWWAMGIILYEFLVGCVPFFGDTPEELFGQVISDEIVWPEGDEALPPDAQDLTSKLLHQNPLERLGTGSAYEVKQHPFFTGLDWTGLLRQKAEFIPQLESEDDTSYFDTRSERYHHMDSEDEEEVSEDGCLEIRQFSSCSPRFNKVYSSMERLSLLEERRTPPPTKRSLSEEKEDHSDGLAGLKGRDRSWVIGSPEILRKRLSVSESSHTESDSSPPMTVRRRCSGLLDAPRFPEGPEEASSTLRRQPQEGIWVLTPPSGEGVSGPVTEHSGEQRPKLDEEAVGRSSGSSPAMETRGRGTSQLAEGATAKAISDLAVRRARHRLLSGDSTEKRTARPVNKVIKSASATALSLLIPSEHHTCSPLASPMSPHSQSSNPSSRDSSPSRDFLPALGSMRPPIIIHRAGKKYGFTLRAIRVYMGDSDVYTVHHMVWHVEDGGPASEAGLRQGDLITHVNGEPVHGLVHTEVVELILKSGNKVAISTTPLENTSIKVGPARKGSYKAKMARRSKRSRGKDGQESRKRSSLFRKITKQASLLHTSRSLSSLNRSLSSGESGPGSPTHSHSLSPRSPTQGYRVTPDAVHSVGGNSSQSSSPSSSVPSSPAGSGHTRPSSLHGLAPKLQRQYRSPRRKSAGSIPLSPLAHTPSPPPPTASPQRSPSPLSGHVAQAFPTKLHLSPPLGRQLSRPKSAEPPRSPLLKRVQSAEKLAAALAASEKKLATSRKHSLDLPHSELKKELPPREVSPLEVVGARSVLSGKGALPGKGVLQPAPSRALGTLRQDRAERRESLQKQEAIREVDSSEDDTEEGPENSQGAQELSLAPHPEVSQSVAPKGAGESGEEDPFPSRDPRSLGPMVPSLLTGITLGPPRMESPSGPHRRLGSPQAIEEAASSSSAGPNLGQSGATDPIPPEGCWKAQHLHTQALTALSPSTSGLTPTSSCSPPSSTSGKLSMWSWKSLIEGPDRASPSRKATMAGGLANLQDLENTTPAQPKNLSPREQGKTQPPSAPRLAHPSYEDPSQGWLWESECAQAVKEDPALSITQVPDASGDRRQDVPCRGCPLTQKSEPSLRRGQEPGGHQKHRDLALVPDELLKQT

Row | effect of a mutation on the interaction | Variant
1 | decreasing interaction | L1310R
